Target: His-tagged full-length Anisakis simplex macrophage migration inhibitory factor (As-MIF, 1-121) (Anisakis simplex)
Assay: SPR

## His-tagged human JAB1 (1-257) (from UniProt Q92905 1-257) (domain or fragment)
  Kd: 16.6 nM
